US8563516B2, “Foxp3 peptide vaccine” (OncoTherapy Science, Inc., priority 2007, dated 2013)
“Also recorded” adds a separate entry of the source.

What was measured:
[1] = test system: peptide pulsed T2 cells; test: CTL line induced with Foxp3-9-252-9V against peptide-pulsed T2 cells; format: cell-based, human; conditions: FIG. 7D, listed as Foxp3-9-252-9V
Procedure: (§1) In FIG. 7C CTLs could be induced by stimulation with Foxp3-9-252 substitutions targeted HLA-A2 molecule. CTLs for all substituted peptides targeted HLA-A2 molecule were generated in the way as described in “Materials and Methods”. […] CTL line induced with Foxp3-9-252-9V peptide was used as responder cells. T2 cells incubated with Foxp3-9-252-9V (-solid circle-) or Foxp3-9-252-WT (-open circle-) peptide and without any peptide (-open square-) were used as stimulator cells in this assay (1×10^4 cells/well).
(§2) On the other hand, the present inventers attempted the induction of CTLs using all substitutions restricted HLA-A*0201 including Foxp3-9-252-9V peptide. […] After CTL line induced by stimulation with Foxp3-9-252-9V was established by in vitro expansion, the CTL activity was determined by using stimulator cells pulsed with Foxp3-9-252-WT or Foxp3-9-252-9V peptide.

[2] = biological target: T1, HLA-A2 molecule (Homo sapiens, UniProt P04439, D140Y/D185E/D98H/E176V/E277Q/G131W/G231S/I119V/I121R/I166T/I218V/L300P/L318F/N151K/N90K/P208A/P217A/Q86G/Q94H/R138H/R169H/T345S); test: CTL induction with Foxp3-9-252 substitutions restricted HLA-A*0201; format: cell-based; conditions: FIG. 7C; for IFN-gamma production compared with the control: positive wells
T1 construct: peripheral blood mononuclear cells (PBMCs) isolated from normal volunteer (HLA-A*2402 and/or HLA-A*0201); endogenous in cells; host or cells: monocyte-derived dendritic cells of HLA-A*0201 volunteers; T2 cells as stimulators in the read-out
Procedure: as §1
Monocyte-derived dendritic cells (DCs) were used as antigen-presenting cells (APCs) to induce CTL responses against peptides presented on HLA. DCs were generated in vitro as described elsewhere (Horiguchi S. et al. Cancer Res. 59:2950-6). Specifically, peripheral blood mononuclear cells (PBMCs) isolated from normal volunteer (HLA-A*2402 and/or HLA-A*0201) with Ficoll-Plaque (Pharmacia) solution were separated by adherence to plastic tissue culture dish (Becton Dickinson) so as to enrich them for the monocyte fraction. The monocyte-enriched population was cultured in the presence of 1000 U/ml of GM-CSF (R&D System) and 1000 U/ml of IL-4 (R&D System) in AIM-V medium (Invitrogen) containing 2% heat-inactivated autologous serum (AS). After 7 days in the culture, the cytokine-generated DCs were pulsed with 20 mcg/ml of the synthesized peptides in the presence of 3 mcg/ml of beta2-microglobulin for 4 hrs at 20 degrees C. in AIM-V medium. These peptide-pulsed DCs were then inactivated with mitomycin C (MMC) (30 mcg/ml for 30 mins) and mixed at a 1:20 ratio with autologous CD8+ T cells, obtained by positive selection with CD8 Positive Isolation Kit (Dynal). These cultures were set up in 48-well plates (Corning); each well contained 1.5×10^4 peptide-pulsed DCs, 3×10^5 CD8+ T cells and 10 ng/ml of IL-7 (R&D System) in 0.5 ml of AIM-V/2% AS. Three days later, these cultures were supplemented with IL-2 (CHIRON) to a final concentration of 20 IU/ml. On day 7 and 14, the T cells were further restimulated with the peptide-pulsed autologous DCs. The DCs were prepared each time through the same procedure described above. CTL activity was tested against peptide-pulsed A24LCL cells or T2 cells after the 3rd round of peptide stimulation on day 21.
(§3) To examine the specific CTL activity, IFN-gamma ELISPOT assay and IFN-gamma ELISA were performed. Briefly, peptide-pulsed A24-LCL, T2 cell (1×10^4/well) or the cells endogenously expressing Foxp3 and HLA molecule was prepared as a stimulator cells. Cultured CTL lines in 48 wells were used as a responder cells. IFN-gamma ELISPOT assay and IFN-gamma ELISA were performed under manufacture procedure.
as §2

[3] = test system: peptide pulsed T2 cells; test: IFN-gamma ELISPOT: CTL line induced with Foxp3-9-252-WT against T2 cells pulsed with substituted peptide; format: cell-based, human; conditions: FIG. 7A, listed as Foxp3-9-252-9V
Procedure: IFN-gamma ELISPOT assay was performed using CTL line induced with Foxp3-9-252-WT peptide as responder cells and T2 cells pulsed Foxp3-9-252-WT or Foxp3-9-252-9V peptide as stimulator cells, respectively. T2 cells without peptide pulse were prepared as control. […] IFN-gamma ELISA assay was performed using CTL line induced with Foxp3-9-252-WT peptide as responder cells (1×10^5 cells/well) and Foxp3-9-252-WT (-solid circle-), Foxp3-9-252-9V (-open circle-) or HIV-A02 (-solid triangle-) peptide pulsed T2 cells as stimulator cells (1×10^4 cells/well). Peptide pulse of stimulator cells was conducted at 37 degree Celsius for 2 hours in each kind of peptide and peptide concentration.
as §3
And then the present inventers examined whether peptide-pulsed stimulator cells using these substitutions were recognized by CTLs generated with Foxp3-9-252-WT peptide.

Sequence: KLSAMQAHV (peptide vaccine) [SEQ ID NO 95]
- recognition of Foxp3-9-252-WT pulsed stimulator cells by CTLs induced with substituted peptide [1]: recognized stimulator cells pulsed Foxp3-9-252-WT peptide as equal to that pulsed Foxp3-9-252-9V peptide; also recorded: recognize stimulator cells coated with Foxp3-9-252-WT peptide
- CTL induction by stimulation with substituted peptide [2]: CTLs were induced
- IFN-gamma production compared with the control ([2]; listed as Foxp3-9-252-9V): showed IFN-gamma production
- IFN-gamma production compared with the control ([2]; listed as Foxp3-A02-9-252-9V): peptide-dependent IFN-gamma production
- IFN-gamma production of Foxp3-9-252-WT induced CTLs against peptide pulsed T2 cells [3]: produced IFN-gamma; also recorded: recognize the cells presenting Foxp3-9-252-9V peptide on HLA-A2 molecule
